Data taken from the supplement of paper PMC9732359.
± gives the uncertainty stated by the source.

Assay: protein stability index of a GFP-peptide fusion (yeast GPS) (PSI 1-4); higher = more stable; sorted into four equal gates, so the index is relative within each strain
In short: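 Each library plasmid carries Cherry plus GFP with a tiled 17-residue yeast protein peptide fused downstream, and the pooled library was carried in yeast. Mid-log cultures in leucine-free medium were sorted into four equal gates by GFP/Cherry ratio. Reads from Illumina sequencing of PCR-amplified plasmids from each gate were assigned to strains by barcodes. Per peptide, the protein stability index was computed as the summed products of gate read frequency and gate number.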

Row | Sequence | protein stability index (doa10∆) | protein stability index (pdr5∆) | protein stability index (san1∆) | protein stability index (ubr1∆)
1 | VTSADSNLKISLVKYPE [SWI1] | 2.61 ± 0.067 | 2.72 ± 0.073 | 2.52 ± 0.085 | 2.75 ± 0.05
2 | VTTCVYLACKVEECPQY [SSN8] | 1.93 ± 0.059 | 2.05 ± 0.075 | 2.58 ± 0.11 | 1.96 ± 0.073
3 | VTVHSLTGEATANALPL [RPL4A] | 2.75 ± 0.069 | 2.76 ± 0.053 | 2.17 ± 0.052 | 2.86 ± 0.041
4 | VVAKLEDKRKVRSAEYY [RPL16B] | 3.49 ± 0.1 | 3.58 ± 0.11 | 3.15 ± 0.12 | 3.37 ± 0.14
5 | VVDFLKRNGSTLEQKVN [FAS1] | 2.83 ± 0.057 | 3.03 ± 0.049 | 2.87 ± 0.048 | 3.07 ± 0.04
6 | VVEEFTPVVLATPIPEE [RPS5] | 2.69 ± 0.13 | 2.27 ± 0.069 | 2.13 ± 0.056 | 2.17 ± 0.049
7 | VVGQNQLIDQFEWDISN [SNF5] | 2.52 ± 0.093 | 2.62 ± 0.1 | 2.9 ± 0.062 | 3 ± 0.12
8 | VVIEKRRKKILNEIELD [GRR1] | 2.03 ± 0.14 | 2.77 ± 0.1 | 2.05 ± 0.17 | 2.96 ± 0.054
9 | VVILARAKALGIKVTNP [RPL32] | 3.16 ± 0.14 | 3.2 ± 0.16 | 2.55 ± 0.12 | 2.93 ± 0.076
10 | VVLVSGEGERFTVDKKI [SKP1] | 3.53 ± 0.11 | 3.6 ± 0.12 | 3.28 ± 0.075 | 2.97 ± 0.094
11 | VVNDLVGEKLVVVVLEE [SIR3] | 3.42 ± 0.076 | 3.18 ± 0.067 | 3.42 ± 0.042 | 3.53 ± 0.081
12 | VVPDLGHLNGHTPTIAS [SSN2] | 2.15 ± 0.045 | 2.65 ± 0.055 | 2.69 ± 0.048 | 2.59 ± 0.038
13 | VVRNMLALTTLSEPLIK [YCG1] | 1.87 ± 0.07 | 1.6 ± 0.059 | 1.4 ± 0.11 | 1.66 ± 0.061
14 | VVSAVGEARNDIENKEE [YAR002W/NUP60] | 2.92 ± 0.056 | 3.17 ± 0.066 | 3.08 ± 0.041 | 2.9 ± 0.076
15 | VVSLKEGMFANANRVFR [SMC2] | 2.84 ± 0.071 | 3.11 ± 0.11 | 3.26 ± 0.06 | 3.18 ± 0.062
16 | VVVVGTVTDDARIFEFP [RPL18A] | 2.75 ± 0.14 | 2.9 ± 0.097 | 2.6 ± 0.15 | 2.79 ± 0.092
17 | VVWYQRLTMGNVFTPEI [RRI2] | 2.03 ± 0.074 | 2.3 ± 0.058 | 2.27 ± 0.12 | 2.45 ± 0.073
18 | VWAPTQKCFKLTHRLGG [POP1] | 2.2 ± 0.056 | 1.88 ± 0.056 | 2.3 ± 0.085 | 2.47 ± 0.054
19 | VWFSHPRRFGKGSRQCR [RPS29B] | 3.02 ± 0.1 | 3.21 ± 0.065 | 3.44 ± 0.091 | 3.23 ± 0.071
20 | VYESEMEQCKQRYQDLS [YIL149C/MLP2] | 3.27 ± 0.09 | 3.36 ± 0.11 | 3.03 ± 0.081 | 3.24 ± 0.094
21 | VYINPSGEKIDFLLSDW [BRR2] | 1.61 ± 0.1 | 2.49 ± 0.097 | 3.22 ± 0.12 | 2.38 ± 0.073
22 | VYTAIYNYCVNKSRSSG [CDC53] | 2.48 ± 0.074 | 2.62 ± 0.057 | 2.61 ± 0.053 | 2.71 ± 0.043
23 | VYTLACRSCPYEFPIEG [RPC11] | 1.22 ± 0.16 | 1.36 ± 0.15 | – | 1.54 ± 0.17
24 | VYTQSNGKTRTLENTLK [RPS2] | 3.45 ± 0.17 | 3.16 ± 0.1 | 3.24 ± 0.075 | 3.38 ± 0.07
25 | WAVTLDTSRPDLEWQEL [DSN1] | 3.35 ± 0.072 | 3.18 ± 0.065 | 3.13 ± 0.047 | 3.14 ± 0.033
